The nanobody polyreactivity screen of Harvey et al. (2022)

experiment: yeast display, Sf9 membrane polyspecificity reagent, FACS + sequencing; frameworks hold sequencing errors
In short: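 A synthetic nanobody library was expressed on Saccharomyces cerevisiae BJ5465 by galactose induction for 36–48 hours. The library was stained for 1 hour at 4 °C with 10% biotinylated, detergent-solubilized Sf9 membrane reagent and enriched with streptavidin microbeads before FACS. Low and high (top ~1%) gates were set on anti-HA fluorescence for expression and streptavidin fluorescence for reagent binding, and each polyreactivity label reflects the gate of origin.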

Row | Sequence | polyreactivity (PSR sort gate)
1 | QVQLVESAGGLVQAGGSLRLSCAASGRIFNSNAMGWYRQAPGKERELVASITSRGDSTFYADSVKGRFTISRDTAKNTVYLQMNSLKPEDTAVYYCAANGLYYRTPPVYSYDYWGQGTQVTVSS | low polyreactivity
2 | QVQLVESGGGLVQAGGSLRLSCAASGNTFTWYTMGWYRQAPGKERELVAAISSSGGNTYYADSVKGRFTISRDNAKNTVYLQMNSLKPEDTAVYYCAADLSSAYGHDYRGQGTQVTVSS | low polyreactivity
3 | QVQLVESGGGLVQAGGSLRLSCAASGRTLTGNAMGWYRQAPGKERELVAAITARGGSTYYADSVKGRFTISRDIAKNTVYLQMNSLKPEDSAVYYCATLPVRIRRDYWGQGTQVTVSS | high polyreactivity
4 | QVQLVESGGGLVQEGGSLRLSCAASGFTFPDYAMGWNRQAPGKERDLVAAITSSGGSTYYADSVKGRFTISRDNAKNTVYLQMNSLKPEDTAVYYCNGYISDDRYWSPAIEEDYWGQGTQVTVSS | high polyreactivity
5 | QVQLEDSGGGLFQAGGSLRLSCAASGNTFPVSYTMGWYIQAHRKEREFVAAISKDGGRTYYADSVKGRFTISRDNAKNTVYLQMNSLKPEDTAVYYCAARYSSSRGLSSEYWGQCTQVTVSS | high polyreactivity
6 | QVQLVESGGGLVQAGGSLRLSCAASGRTLGVYTMGWYRQAPGKERELVATISWDGGITYYADSVKGRFTISRDNAKNTVYLQMNSLKPEDTAVYYCAAVDHSYGWMDYWGQGTQVTVSS | low polyreactivity
7 | QVQLVDSGGGLVKAGCSLRLSCAASGRIFNSYAMGLYRQAPGKETELVAAITWSGDRTNYADSVKGRFTISRDNANNTVYVQMNSLKPEDTAVYYCAADRVRSVRYGYWGKGTQVTVSS | low polyreactivity
8 | QVQLVESGGGLVQAGGSLRLSCAASGRIFGRYVMGWYRQAPGKERELVAAITSRDDSTYYADSVKGRFTISRDNAKNTVYLQMTSLKPEDTAVYYCAATWGRGYDYWGQGTQVTVSS | high polyreactivity
9 | QVQHVESGGGLDQGRGSLSLSCAASARNLSSNVLGRYRQAPGNETEFVASITYSGSSTYYADSVKGRFTISRDYAKNTFYLQMNSLKPEDTAVYYCATRYGYSDGDYWGQGTQVTVSS | low polyreactivity
10 | QVQLVESGGGLVQAGGSLRLSCAASGNTQGYNAAMGWYRQAPGKERELVAAINSGGGSTYYADSVKGRFTISRDNAKNTVYLQMNSLKPEDTAVYYCAARYRSRYDYYYDRDYWGQGTQVTVSS | low polyreactivity
11 | QVQLVESGGGLVQAGGSLRLSCAASGSIFYFYAMGWYRQAPGKERELVAAITSGGSTYYADSVEGRFTISRDNAKNTVYLQMNSLKPEDTAVYYCNAVSSYGYDYWGQGTQVTVSS | high polyreactivity
12 | QVQLVESGGGLVQAGGSLSLTCAASGIIFSYNAMGWYRQATGKERELVAAISWSGGSTYYADSVKGRFTISRDNAKNTVYLQMNSLKPEDTAVYYCNAPYLIRFKRLGDNWGQGTQVTVSS | high polyreactivity
13 | QVQLVESGGGLVHAGGSHRLSCAASGFSFKSYAMGWYRQAPGKERELVAAISRRCGSTNYADSVKGRFTISRDNAKNTVYLQMNSLKPEDTAVYYCNADPYNSPYQVSGPYKEDYDYWGQGTQVTVSS | high polyreactivity
14 | QVQLVESGGGLVQAGGSLRLSCAASGRTFYAYAMGWSRQAPGKERELVAAITSGASTYYADSVKGRFTISRDNAKNTVYLQMNSLKPEDTAVYYCAKRVRYYKPGYDYWGQGTQVTVSS | low polyreactivity
15 | QFQLVESGGGLVQAGGSLRLSCAASGSIFVPYAMGWYRQAPGKERELVAAISSSTASTYYADSVKGRFTISRDNAKNTVYLQMNSLKPEDTAVYYCNAEQWDYGVRVAHYDYWGQGTQVTVSS | low polyreactivity
16 | QVHLVESGGGLVQAVSSLRLSCAASGSTFRAYAMGWYRQEPGKDRELVARITFSGGSTYYADSVKGRFTISRDNAKNTVYLQMNSLKPEDTAVYYCNARRTYLDRYNYWGQGTQVTVSS | high polyreactivity
